The source of these data is the supplement of paper PMC9112550, “Optimization of the antimicrobial peptide Bac7 by deep mutational scanning” (BMC Biology, 2022).

The series has as its system Escherichia coli TOP10. In words: shrunken log2 fold change of peptide-encoding DNA abundance (4.5 h post-induction vs induction); higher = less antimicrobial activity (less host growth inhibition). Conditions: time post-induction: 4.5 h; library: site-saturation at positions 5, 18, 19, 20.
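Note: peptides expressed intracellularly from a pBAD plasmid library in pooled LB shake-flask culture, induced with 0.3% L-arabinose, DNA abundance read by NGS, three biological replicates, DESeq2 with apeglm shrinkage.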

In the case of RRIRDRPPRLPRPRPRPIVGPRP, the “shrunken log2 fold change” value is 0.145.
Turning to RRIRSRPPRLPRPRPRPIKLPRP, the “shrunken log2 fold change” value is 0.0994.
Take RRIRWRPPRLPRPRPRPCNCPRP: the “shrunken log2 fold change” value is -0.289.
On to RRIRKRPPRLPRPRPRPMPDPRP, for which the “shrunken log2 fold change” value was 0.525.
Take RRIRGRPPRLPRPRPRPDSDPRP: the “shrunken log2 fold change” value is 0.0289.
For RRIRNRPPRLPRPRPRPITWPRP the value was -0.0587.
For RRIRNRPPRLPRPRPRPLRFPRP the value was 0.426; for RRIRSRPPRLPRPRPRPDFEPRP, -0.0501; for RRIRCRPPRLPRPRPRPYGMPRP, -0.0815.
With RRIRSRPPRLPRPRPRPNEHPRP, the “shrunken log2 fold change” value is -0.655.
For RRIRSRPPRLPRPRPRPVSLPRP the value was -0.122.
As for RRIRTRPPRLPRPRPRPLKFPRP, the “shrunken log2 fold change” value was -0.27.
For RRIRKRPPRLPRPRPRPGGEPRP the value was 0.753.
For RRIRCRPPRLPRPRPRPNKMPRP the value was -0.393; for RRIRVRPPRLPRPRPRPNQMPRP, -0.092; for RRIRCRPPRLPRPRPRPMNWPRP, -0.217.
For RRIRPRPPRLPRPRPRPRAHPRP the value was 0.345; for RRIRQRPPRLPRPRPRPEQQPRP, -0.0316.
As to RRIRHRPPRLPRPRPRPQRSPRP, the “shrunken log2 fold change” value was 0.0449.
Consider RRIRVRPPRLPRPRPRPSYRPRP, for which the “shrunken log2 fold change” value is -0.775.
For RRIRPRPPRLPRPRPRPLRDPRP the value was 0.522; for RRIRSRPPRLPRPRPRPWLTPRP, -0.0675.
For the sequence RRIRQRPPRLPRPRPRPRLDPRP, the “shrunken log2 fold change” value worked out at 0.205.
Regarding RRIRPRPPRLPRPRPRPAWQPRP, the “shrunken log2 fold change” value was found to be 0.277.
For RRIRHRPPRLPRPRPRPIAEPRP the value was -0.103; for RRIRYRPPRLPRPRPRPRRMPRP, -0.0427.
With RRIRERPPRLPRPRPRPWNHPRP the figure was -1.48.
For RRIRLRPPRLPRPRPRPDTEPRP the value was -0.0195.
With RRIRSRPPRLPRPRPRPSSPPRP, the “shrunken log2 fold change” value is -0.561.
For RRIRKRPPRLPRPRPRPCLNPRP the value was 0.00932; for RRIRTRPPRLPRPRPRPPNLPRP, 0.0303; for RRIRYRPPRLPRPRPRPCNHPRP, -0.213.
For the sequence RRIRDRPPRLPRPRPRPAGGPRP, the “shrunken log2 fold change” value worked out at 1.11.
For RRIRRRPPRLPRPRPRPVPRPRP, the “shrunken log2 fold change” value is 0.518.
Regarding RRIRTRPPRLPRPRPRPHDDPRP, the “shrunken log2 fold change” value is -0.0991.
As for RRIRKRPPRLPRPRPRPAGMPRP, the “shrunken log2 fold change” value was determined as 0.042.
With RRIRDRPPRLPRPRPRPKHSPRP the figure was -0.211.
For RRIRARPPRLPRPRPRPISTPRP the value was -0.295; for RRIRIRPPRLPRPRPRPPNCPRP, -1.06.
With RRIRIRPPRLPRPRPRPMFCPRP the figure was -0.345.
Take RRIRDRPPRLPRPRPRPNSRPRP: the “shrunken log2 fold change” value was -0.0447.
For RRIRVRPPRLPRPRPRPNTQPRP the value was -0.0658; for RRIRVRPPRLPRPRPRPHFVPRP, -0.0262.
RRIRYRPPRLPRPRPRPMNWPRP: the “shrunken log2 fold change” value was -0.463.
With RRIRMRPPRLPRPRPRPALFPRP the figure was 0.356; with RRIRCRPPRLPRPRPRPGEVPRP, 0.212; with RRIRDRPPRLPRPRPRPICRPRP, 0.266.
For RRIRYRPPRLPRPRPRPRMYPRP the value was -0.627; for RRIRARPPRLPRPRPRPLQMPRP, 0.629; for RRIRYRPPRLPRPRPRPSVMPRP, -0.194.
